Measurements published in the supplement of paper PMC9170038.

Tested on: MS2 coat protein
Assay: apparent KD of MS2 coat protein, switch OFF state (with FMN for OFF switches, without FMN for ON switches); designed switch direction (-1 OFF switch, 1 ON switch): 1; higher = weaker reporter binding
Details: FMN input: 0 or 200 uM; Eterna round: R93 (includes R88 designs)
In short: (§1)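 Designed RNA switches were transcribed on-chip from Illumina sequencing clusters. They were then titrated with SNAP-549-labelled MS2 coat protein (twofold steps, 0.7 or 1.5 nM to 3 µM; 0.8–1.5 h to 10–20 min per step) in 100 mM Tris-HCl pH 7.5, 80 mM KCl, 4 mM MgCl2, without or with constant ligand. Apparent KD is the per-design median of normalised cluster binding-curve fits.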

| Sequence | apparent KD of MS2 coat protein [µM] |
| --- | --- |
| CGGCAAGAGAGAGAGGAUAUCCAAAGGAAAACAUGAGGAUCACCCAUGUAGAAGGUAGGAAAUUGGGAGAAGGCUCAAGAGAGAG [salish99-ss2-135] | 0.0184 |
| AAACAAACAACGCAGGAUAUGCAAAAACCCACAUGAGGAUCACCCAUGUCCCAACAACAAACAAAGCAGAAGGGCGAACAAACAAA [High Roller1] | 0.0868 |
| AAGAAACAUGAGGAUCACCCAUGUAAAAAUAUGGGAGGAUAUGCGAAAAGAAACAAAGAAGCAGAAGGCCUAAGAA [75%, Ex5 sub 1, 6] | 0.0511 |
| AAUAUAUUAAGUGAGGAUAUCGAGGAAAAAACAUGAGGAUCACCCAUGUGGGUAAAAAAAAAAAGUGAGAAGGUGCUUAAUAUAU [Samwise Clockwise 10 - Jieux - Same State 2] | 0.128 |
| CCUAGGAAGAGAGAGGAUAUCCAAAGGAAAACAUGAGGAUCACCCAUGUAAAAGGUAGGAAAUUGGGAGAAGGCUCAAGAGAGAG [salish99-ss2-088] | 0.0239 |
| GAAAAACAUGAGGAUCACCCAUGUACAAAUAUGGAAGGAUAUACGAUGACGAAAGUCAAAGUAGAAGGUCUAAAAG [Garnet 98] | 0.0254 |
| AAAAUAUAAACAGAGGAUAUCCAAAGAACCACAUGAGGAUCACCCAUGUAAAGAAAGAAUAAGUGGGAGAAGGUUGAAAUAAUAA [Designing denovo 26] | 0.0749 |
| CGGAAGGAGAGAGAGGAUAUCCAAAGGAAAACAUGAGGAUCACCCAUGUAGAAGGUAGGAAAUUGGGAGAAGGCUCAAGAGAGUG [salish99-ss2-121] | 0.0446 |
| AGAAAUAAAAGAGAGGAUAUCCAAAAGAAAACAUGAGGAUCACCCAUGUGAAACAAAACAAAAUGGGAGAAGGCUCAAAAUAAGA [Topaz 16] | 0.137 |
| AAGAAACAUGAGGAUCACCCAUGUAAGAUAAACACAGGAUAUGCGAAAAGAAAUAAAGAAGCAGAAGGGUGAAGAA [Mat - Same State 1 - Tesla mod - 63] | 0.0543 |
| AAAAAAAAAAGUCAGGAUAUGCAGGGCGGGACAUGAGGAUCACCCAUGUGGCGGAAAAAAAAAAAGCAGAAGGGACGAAUAAAAAA [William Edwards Deming] | 0.0428 |
| AAAAGACAUGAGGAUCACCCAUGUAGGCCAAAGCAAGGAUAUAGGCCACAGGGACGUGAACUAGAAGGUGCACGGC [Zainlebe] | 0.135 |
| AGAAAUAAAAGAGAGGAUAUCCAAAAUAAAACAUGAGGAUCACCCAUGUCUACGAAAGUAGGAUGGGAGAAGGCUCAAAAUAAAG [80% More Helter Skelter 2 + Hairpin] | 0.0148 |
| GAAAAACAUGAGGAUCACCCAUGUGGAAAUAUGGGAGGAUAUACGAAGACGAAAGUCAAAGUAGAAGGCCUAAAAG [Same State 1.4c (Mat - Mod of Eli - )] | 0.0838 |
| AAAAAACAUGAGGAUCACCCAUGUGCAAAAUUCGCAGGAUAUUCCUCAAUUAAAUGAGAGGAAGAAGGGUGACAAA [Nob's Hobby 29 - Jieux - Same State 1] | 0.5 |
| AAAAAACAUGAGGAUCACCCAUGUAAAAAAAUCACAGGAUAUAAGGUCGCGAAAGCGACCUUAGAAGGGUGAUCAA | 0.421 |
| AAUGAACAUGAGGAUCACCCAUGUUCUAAUAGUUGAGGAUAUAUGGGUGAAAAUAGCACGGUAGAAGGCGAGUGUA [SameState1 Malc#18] | 0.104 |
| AAGAAACAUGAGGAUCACCCAUGUAAGAUAAACACAGGAUAUGCGAAAGAAACAAAGAAAGCAGAAGGGUGAAGAA [Mat - Same State 1 - Tesla mod - 48] | 0.0268 |
| AGAAAUAAAAGAGAGGAUAUCCAAAAUAAAACAUGAGGAUCACCCAUGUGAAACAAAACAAAAUGGGAGAAGGCUCAAAAUAAGA [Topaz 17] | 0.0339 |
| AAGAAACAUGAGGAUCACCCAUGUAGAAAUAUGGGAGGAUAUACGAGGACGAAAGUCAAAGUAGAAGGCCUAAGAA [Mat - Same State 1 - Meechl mod - D130] | 0.0669 |
| UAAAAAAAAAGACAGGAUAUCCAAAAGAAAACAUGAGGAUCACCCAUGUAAAAGAAAAUAAAAUGGGAGAAGGGUCAAAAAAAAU [Mat - Same State 2 - JL mod - D79] | 0.0535 |

Tested on: MS2 coat protein
Assay: apparent KD of MS2 coat protein, switch OFF state (with FMN for OFF switches, without FMN for ON switches); designed switch direction (-1 OFF switch, 1 ON switch): -1; higher = weaker reporter binding
Details: FMN input: 0 or 200 uM; Eterna round: R93 (includes R88 designs)
In short: as §1

| Sequence | apparent KD of MS2 coat protein [µM] |
| --- | --- |
| AAGGGACAUGAGGAUCACCCAUGUUAGGAUAUGCAAAUAACAAACAACAAACAACAAAGCAGAAGGGACAAAAA [Mat - Exclusion 1 - Eli mod - D54] | 0.0293 |
| AGGUAGUCAGGAUAUGCGUGAAGAAUAAAACAAAUAACAACGCAGAAGGGACAUGAGGAUCACCCAUGUUAAGA [May 48] | 0.0317 |
| UUUUGACAUGAGGAUCACCCAUGUCAGGAUAUAGUAAGAAAAAAAAAAAAAAAAACUACUAGAAGGGAUAUGGA [Amethyst 51] | 0.0254 |
| AAAAAGUGAGGAUAUACAUGAGGAUCACCCAUGUGUAUAAAAAAAUACACAAAAGAAAGUAGAAGGCACUAAAA [Ex 3 Hot] | 0.0586 |
| GCUGUGCUAGGAUAUACAUGAGGAUCACCCAUGUGAGAGAAAAAAGUGAGAAAGAAAAGUAGAAGGAGCGUAGG [salish99-ex3-100] | 0.0592 |
| AAACAACAUGAGGAUCACCCAUGUCAGGAUAUGAACGAAAAUAAAUAAAAAUAAAAGUUCAGAAGGGACGAAAA [66%, Wbt, 16] | 0.0497 |
| AACUGACAUGAGGAUCACCCAUGUCAGGAUAUGAUUUGACGAAAUAAAUAAAGUCAUAUCAGAAGGGACAUGGA [Design 80: Sub-opt U] | 0.0504 |
| AAUAAAGCAGGAUAUACUAAAGAAAUGAAAAGAAAUAAAGAACAUGAGGAUCACCCAUGUAGAAGGGCUAAUAA [Semqen] | 0.0184 |
| GAAAAUGGAGGAUAUACGUACAUGUCAAAAGACGUGAAGGGACAUGAGGAUCACCCAUGUAGAAGGCUAAAAAG [Mat - Exclusion 2 - JL mod - D96] | 0.0154 |
| GUGUACAGAGGAUAUACAUAAGCAUGGAAACAUGCAACUUCACAUGAGGAUCACCCAUGUAGAAGGCUGUACAC [Ex2: 729] | 0.0137 |
| AUCAUGUAAGGAUAUUCAAGAAAAGAAAAGAAAGAAAAGAAGAAGAAGGUACAUGAGGAUCACCCAUGUAAGAA [EteRNA is fun!] | 0.0642 |
| AAAAGUGGAGGAUAUACAUGAGGAUCACCCAUGUGUAAAAAUAAAUACACAAAAGAAAGUAGAAGGCCACAAAA [Ex 3 May 10] | 0.122 |
